Source: patent US5622828, “High-affinity oligonucleotide ligands to secretory phospholipase A2 (sPLA2)” (Nexstar Pharmaceuticals, Inc.)
Read-outs that look alike come from different tables or passages of the source.

Tests used:
[1] = molecular target: T1, secretory phospholipase A2 (sPLA2) (Homo sapiens, UniProt P14555 P14555:21-144); assay: filter; biphasic, Kd2 43 nM, mole fraction 0.25; TBSC, 37 C; details: tags: supplied by Eli Lilly
T1 sequence: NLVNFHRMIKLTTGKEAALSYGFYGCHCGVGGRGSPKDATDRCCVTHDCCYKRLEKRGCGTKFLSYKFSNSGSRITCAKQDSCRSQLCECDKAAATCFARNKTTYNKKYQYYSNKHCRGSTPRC
Method: (§1) The nitrocellulose filter partitioning method was used as described in SELEX Patent Applications to determine the affinity of RNA ligands for sPLA_2 and for other promins. Filter discs (nitrocellulose/cellulose acetate mixed matrix, 0.45 µm pore size, Millipore) were placed on a vacuum manifold and washed with 5 ml of TBSC buffer under vacuum. Reaction mixtures, containing ^32P labeled RNA pools and sPLA_2, were incubated in TBSC for 5 minutes at 37° C., filtered, and then immediately washed with 5 ml TBSC. The filters were air-dried and counted in a Beckman liquid scintillation counter without fluor.
(§2) The dissociation constants for representative members of families I–VI, orphan and other ligands were determined by nitrocellulose filter binding experiments and are listed in Table III. Unlike random RNA, all tested ligands from the 2'OH SELEXes bound biphasically.

[2] = molecular target: T1, secretory phospholipase A2 (sPLA2); assay: filter; biphasic, Kd2 200 nM, mole fraction 0.20; calcium dependent; TBSC, 37 C; details: tags: supplied by Eli Lilly
Method: as §1, §2

[3] = molecular target: T1, secretory phospholipase A2 (sPLA2); assay: filter; biphasic, Kd2 92 nM, mole fraction 0.60; TBSC, 37 C; details: tags: supplied by Eli Lilly
Method: as §1, §2

[4] = molecular target: T1, secretory phospholipase A2 (sPLA2); assay: filter; biphasic, Kd2 150 nM, mole fraction 0.2; conserved G replaced by U; TBSC, 37 C; details: tags: supplied by Eli Lilly; hairpin with asymmetric internal loop
Method: as §1, §2

[5] = molecular target: T2, basic fibroblast growth factor (bFGF) (Homo sapiens, UniProt P09038 P09038:143-288); assay: filter; specificity control, like random RNA; TBSC
T2 sequence (P09038 143-288, one chain of several): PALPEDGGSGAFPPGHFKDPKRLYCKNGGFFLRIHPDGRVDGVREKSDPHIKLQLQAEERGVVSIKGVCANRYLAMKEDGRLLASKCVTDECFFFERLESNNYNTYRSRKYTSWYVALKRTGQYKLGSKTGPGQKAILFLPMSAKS
Method: (§3) The affinity of sPLA_2 ligands 2, 72, 80, 87, NN19 and NN19.15 (SEQ ID NOs.:11, 20, 53, 54, 64, and 117, respectively) for proteins other than sPLA_2 was determined by nitrocellulose partitioning (Tables IV and V). Like sPLA_2, hen egg white lysozyme, bFGF and elastase are small, highly cationic proteins. Bovine pancreatic PLA_2 is an evolutionarily and structurally related enzyme. […] Specificity is particularly well illustrated by the affinities for bovine pancreatic PLA_2 which is 10^4-fold less than that for human sPLA_2.
(§4) *Standard binding experiments were performed to the specified target protein in TBSC and K_d's calculated by curve fitting. The ligands bind no better than randomized RNA (30N1) to human neutrophil elastase, human basic fibroblast growth factor (bFGF), and human immunoglobulin G (IgG and C1q).

[6] = molecular target: neutrophil elastase (Homo sapiens, UniProt P08246 P08246:30-267); assay: filter; specificity control, like random RNA; TBSC
Chain of neutrophil elastase (P08246 30-267, one chain of several): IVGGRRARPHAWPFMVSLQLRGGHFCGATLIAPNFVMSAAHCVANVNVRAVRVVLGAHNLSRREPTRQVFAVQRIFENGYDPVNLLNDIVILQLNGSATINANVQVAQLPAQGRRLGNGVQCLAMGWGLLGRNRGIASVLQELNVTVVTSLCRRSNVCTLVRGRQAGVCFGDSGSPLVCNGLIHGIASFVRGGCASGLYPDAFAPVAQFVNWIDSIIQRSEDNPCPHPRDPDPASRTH
Method: as §3, §4

[7] = molecular target: T1, secretory phospholipase A2 (sPLA2); assay: filter; monophasic; Table V prints 1 nM; TBSC, 37 C; details: tags: supplied by Eli Lilly; hairpin with asymmetric internal loop
[8] = molecular target: T1, secretory phospholipase A2 (sPLA2); assay: filter; biphasic, Kd2 82 nM, mole fraction 0.50; TBSC, 37 C; details: tags: supplied by Eli Lilly
Method: as §1, §2

[9] = molecular target: C1q (printed Clq) (Homo sapiens, UniProt P02745;P02746;P02747 P02745:23-245,P02746:28-253,P02747:29-245); assay: filter; specificity control, like random RNA; TBSC; details: chain copies: 6
Chain of C1q (printed Clq) (P02745 23-245, chain 1 of 3): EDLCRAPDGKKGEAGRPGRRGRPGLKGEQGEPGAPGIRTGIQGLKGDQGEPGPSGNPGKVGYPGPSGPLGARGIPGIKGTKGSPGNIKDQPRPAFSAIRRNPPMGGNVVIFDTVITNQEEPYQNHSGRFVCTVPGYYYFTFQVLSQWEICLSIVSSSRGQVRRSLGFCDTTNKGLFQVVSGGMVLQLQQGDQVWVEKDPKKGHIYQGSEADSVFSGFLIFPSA
Chain of C1q (printed Clq) (P02746 28-253, chain 2 of 3): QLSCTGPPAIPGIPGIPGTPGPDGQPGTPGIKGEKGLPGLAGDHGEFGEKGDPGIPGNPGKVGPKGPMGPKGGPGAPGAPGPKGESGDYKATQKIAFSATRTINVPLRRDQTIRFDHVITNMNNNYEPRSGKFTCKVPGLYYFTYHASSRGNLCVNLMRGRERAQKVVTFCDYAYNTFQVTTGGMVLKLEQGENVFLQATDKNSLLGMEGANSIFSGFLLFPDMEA
Chain of C1q (printed Clq) (P02747 29-245, chain 3 of 3): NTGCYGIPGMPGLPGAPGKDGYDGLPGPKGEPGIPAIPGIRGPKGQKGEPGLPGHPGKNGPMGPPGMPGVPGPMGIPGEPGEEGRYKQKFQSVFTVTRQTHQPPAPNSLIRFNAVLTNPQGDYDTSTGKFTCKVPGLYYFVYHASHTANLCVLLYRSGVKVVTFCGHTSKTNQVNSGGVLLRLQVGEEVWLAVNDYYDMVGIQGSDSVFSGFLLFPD
Method: as §3, §4

[10] = molecular target: T1, secretory phospholipase A2 (sPLA2); assay: filter; Table V prints 0.4 nM; TBSC, 37 C; details: tags: supplied by Eli Lilly
[11] = molecular target: T1, secretory phospholipase A2 (sPLA2); assay: filter; biphasic, Kd2 140 nM, mole fraction 0.65; TBSC, 37 C; details: tags: supplied by Eli Lilly
Method: as §1, §2

[12] = molecular target: T1, secretory phospholipase A2 (sPLA2); assay: filter; biphasic, Kd2 240 nM, mole fraction 0.50; TBSC, 37 C; details: tags: supplied by Eli Lilly
Method: as §1, §2

[13] = molecular target: pancreatic phospholipase A2 (bpPLA2) (Bos taurus, UniProt P00593 P00593:23-145); assay: filter; specificity control, like random RNA; TBSC
Chain of pancreatic phospholipase A2 (bpPLA2) (P00593 23-145, one chain of several): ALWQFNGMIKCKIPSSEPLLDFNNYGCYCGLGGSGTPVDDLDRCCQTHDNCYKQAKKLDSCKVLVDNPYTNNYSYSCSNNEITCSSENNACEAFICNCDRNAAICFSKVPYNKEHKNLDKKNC
Method: as §3
(§5) *Standard binding experiments were performed to the specified target protein in TBSC and K_d's is calculated by curve fitting. The ligands bind no better than randomized RNA (30N1) to lysozyme (hen egg-white), human basic fibroblast growth factor basic (bFGF) and bovine pancreatic PLA₂. The sPLA₂ K_d that of the high affinity species.

[14] = molecular target: T2, basic fibroblast growth factor (bFGF); assay: filter; specificity control, like random RNA; TBSC; remark: listed apart in the source
Method: as §3, §5

[15] = molecular target: lysozyme (egg white) (Gallus gallus, UniProt P00698 P00698:19-147); assay: filter; specificity control, like random RNA; TBSC; details: tags: 6x crystallized
Chain of lysozyme (egg white) (P00698 19-147, one chain of several): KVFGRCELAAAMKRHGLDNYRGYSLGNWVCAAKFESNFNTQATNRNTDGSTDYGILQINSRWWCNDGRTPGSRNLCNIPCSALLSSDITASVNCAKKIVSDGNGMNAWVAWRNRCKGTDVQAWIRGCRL
Method: as §3, §5

[16] = molecular target: T1, secretory phospholipase A2 (sPLA2); assay: filter; biphasic, Kd2 270 nM, mole fraction 0.13; Table III prints SEQ 103, Table IV SEQ 20; TBSC, 37 C; details: tags: supplied by Eli Lilly
Method: as §1, §2

[17] = molecular target: T1, secretory phospholipase A2 (sPLA2); assay: filter; biphasic, Kd2 350 nM, mole fraction 0.70; TBSC, 37 C; details: tags: supplied by Eli Lilly
Method: as §1, §2

[18] = hairpin with asymmetric internal loop

B1: 1 (orphan) (ssRNA)
RNA: GGGAGCUCAGAAUAAACGCUCAAGCCGAACCGAAUGGAGGUGGAGGGAUUGCGUUCGACAUGAGGCCCGGAUCCGGC
Kd [1]: 1.4 nM

B2: 60 (orphan) (ssRNA)
RNA: GGGAGCUCAGAAUAAACGCUCAAACAACGGCCCACACGGGAGAUCCGAGAAAAGUUCGACAUGAGGCCCGGAUCCGGC
Kd [2]: 0.3 nM

B3: 85 (ssRNA)
RNA: GGGAGCUCAGAAUAAACGCUCAAAUUGCAUCAUGUACCGCAAGACGUAUUCUAUUCGACAUGAGGCCCGGAUCCGGC
Kd [3]: 3.8 nM

B4: NN27 (ssRNA)
RNA: GGGAAAAGCGAAUCAUACACAAGACCGGCCGGGGAAACCCGAGGUCCGAUGUAACGCAUGGCGCCUCACCGAGUCGCUCCGCCAGAGACCAACCGAGAA
modifications: 2'-NH2 all C and U
Kd [4]: 0.4 nM

B5: NN19 (ssRNA)
RNA: GGGAAAAGCGAAUCAUACACAAGACCGGCCGGCGCCAUAGCCGAGAUCCGAGGUGUUGAACGAUAACUCGGUGCUCCGCCAGAGACCAACCGAGAA
modifications: 2'-NH2 all C and U
Kd [5, 18]: 210 nM | Kd [6, 18]: 40 nM | Kd [7]: 0.4 nM

B6: 93 (ssRNA)
RNA: GGGAGCUCAGAAUAAACGCUCAACAGCCAAUGUGUCCCGUACGGCGUAUCCUAUUCGACAUGAGGCCCGGAUCCGGC
Kd [8]: 17.2 nM

B7: NN19.15 (ssRNA)
RNA: GGGAAAAGAAGACCGGCCGGCGCCAUAGCCGAGAUCCGAGGUGUUGCCGAGAA
modifications: 2'-NH2 all C and U
Kd [9]: 1000 nM | Kd [5]: 165 nM | Kd [6]: 40 nM | Kd [10]: 1.7 nM

B8: 95 (ssRNA)
RNA: GGGAGCUCAGAAUAAACGCUCAACGCUGGAUACCAUCGCACGGCGUAUCCUGCUUCGACAUGAGGCCCGGAUCCGGC
Kd [11]: 4.5 nM

B9: 18 (ssRNA)
RNA: GGGAGCUCAGAAUAAACGCUCAAAUCGCAUCAUGUACCGCAAGACGUAUUCUAUUCGACAUGAGGCCCGGAUCCGGC
Kd [12]: 5 nM

B10: 72 (ssRNA)
RNA: GGGAGCUCAGAAUAAACGCUCAAGACCUCUGCUUACAGCCCGGCUGAGACACUUCGACAUGAGGCCCGGAUCCGGC
Kd [13]: 29000 nM | Kd [14]: 180 nM | Kd [15]: 1500 nM | Kd [16]: 0.5 nM

B11: 54 (ssRNA)
RNA: GGGAGCUCAGAAUAAACGCUCAAAUUGCAUCAUGUACCGUAAGACGUAUUCUAUUCGACAUGAGGCCCGGAUCCGGC
Kd [17]: 16.6 nM
